Consider two substances from US20050026234A1.

The target of experiment [1] is modified kemptide LRRASLP of C4kY2.1, phosphorylated by PKA at serine 475. The experiment is described as follows: cell-based or functional assay.
Experiment [2] has as its target PKC substrate sequence … of CKAR, phosphorylated by PKC at the phosphoacceptor threonine. As to the kind of experiment: cell-based or functional assay.

As for “14-3-3τ (1-232), the phosphoaminoacid binding domain of the chimeric PKA reporter protein C4kY2.1”, in experiment [1], the FRET efficiency of phosphorylated C4kY2.1, calculated after trypsin treatment (nonphosphorylated: 30%) is 20%; the change in the emission ratio 535 nm/480 nm in cells pretreated with 10 µM H-89, then 1 mM dbcAMP is 46%; the emission ratio of 526 nm and 476 nm of the purified PKA-phosphorylated chimera before dephosphorylation by PP1 (1.14 after) stood at 1.39; the increase in the 535 nm/480 nm ratio in COS-7 cells treated with FsK and with dbcAMP turned out to be 5%. In addition, the ratio of the emission at 526 nm and 476 nm of purified C4kY2.1 after phosphorylation by PKA catalytic subunit (1.09 before) in experiment [1] is 1.42.
For “FHA2 phosphothreonine binding domain from the yeast checkpoint protein rad53p, as the binding domain of CKAR (from UniProt P22216 601-681)”, in experiment [2], the absolute amount of FRET of purified CKAR after phosphorylation by PKC βII (38% before), estimated from emission spectra was 34%.
